Reference: PMC12182893

Target: Pseudotyped lentivirus displaying Omicron BA.5 S protein (PV) (SARS-CoV-2 Omicron BA.5) (UniProt P0DTC2)
Test: dot blot (filter binding)

Sequence | Kd [pM]
TTACGTCAAGGTGTCACTCCTGTGGGTGGAATGGGGAAGGGAGTGTTTTTTTTTGTGAGATGTGTGGTGTGGAATGGGGAAGCATCTCTTTGGCGTG [DRDA8] | 0.0028
TTACGTCAAGGTGTCACTCCTGTGGGTGGAATGGGGAAGGGAGTGTTTTTTTTTTCGGAGATGTGTGTGTGAAACAGTGGGAAGCATCTCTTTGGCGTG [DRDA10] | 0.0043
